B1: HHH_rd1_0493 (parent)
chain: RDEDEKEKIKEALKRGNEDKAKEIAKRANVSPEEYERLRKEAE

The variants in the data set derive from B1. Description: folding stability dG (cDNA display proteolysis); higher = more stable. As to conditions: PBS, room temperature.
Turning to RDEDEKEKIKEALKRGNEDKAKEIAKRANVSPEEEERLRKEAE [Y35E], the “folding stability dG” value came out at 0.245 kcal/mol. Then RDEDEKEKIKEALKRGNEDKAKEIAKRANVSPEEWERLRKEAE [Y35W], with 2.58 kcal/mol; and RDEDEKEKIKEALKRGNEDKAKEIAKRANVSPEEGERLRKEAE [Y35G], with -0.05 kcal/mol. As for RDEDEKEKIKEALKRGNEDKAKEIAKRANVSPEEAERLRKEAE [Y35A], the “folding stability dG” value amounted to 0.298 kcal/mol. Then RDEDEKEKIKEALKRGNEDKAKEIAKRANVSPEEYEQLRKEAE [R37Q], with 2.63 kcal/mol.

RDEDEKEKIKEALKRGNEDKAKEIAKRANVSPEEYEGLRKEAE [R37G]: the “folding stability dG” value is 1.77 kcal/mol. The value for RDEDEKEKIKEALKRGNEDKAKEIAKRANVSPEEYEDLRKEAE [R37D] was 2.02 kcal/mol.

Consider RDEDEKEKIKEALKRGNEDKAKEIAKRANVSPEEYEFLRKEAE [R37F], for which the “folding stability dG” value worked out at 2.15 kcal/mol.

For the variant RDEDEKEKIKEALKRGNEDKAKEIAKRANVSPEEYESLRKEAE [R37S], the “folding stability dG” value was found to be 2.27 kcal/mol.

On to RDEDEKEKIKEALKRGNEDKAKEIAKRANVSPEEYEALRKEAE [R37A], for which the “folding stability dG” value was 2.51 kcal/mol. Then RDEDEKEKIKEALKRGNEDKAKEIAKRANVSPEEYEVLRKEAE [R37V], with 2.24 kcal/mol; and RDEDEKEKIKEALKRGNEDKAKEIAKRANVSPEEYEPLRKEAE [R37P], with -0.529 kcal/mol; and RDEDEKEKIKEALKRGNEDKAKEIAKRANVSPEEYEILRKEAE [R37I], with 2.44 kcal/mol. Then RDEDEKEKIKEALKRGNEDKAKEIAKRANVSPEEYEHLRKEAE [R37H], with 2.12 kcal/mol. The value for RDEDEKEKIKEALKRGNEDKAKEIAKRANVSPEEYEMLRKEAE [R37M] was 2.49 kcal/mol; that for RDEDEKEKIKEALKRGNEDKAKEIAKRANVSPEEYELLRKEAE [R37L] was 2.42 kcal/mol; that for RDEDEKEKIKEALKRGNEDKAKEIAKRANVSPEEYETLRKEAE [R37T] was 2.22 kcal/mol.

In the case of RDEDEKEKIKEALKRGNEDKAKEIAKRANVSPEEYEWLRKEAE [R37W], the “folding stability dG” value came to 2.16 kcal/mol. Then RDEDEKEKIKEALKRGNEDKAKEIAKRANVSPEEYEELRKEAE [R37E], with 2.4 kcal/mol; and RDEDEKEKIKEALKRGNEDKAKEIAKRANVSPEEYEKLRKEAE [R37K], with 2.68 kcal/mol. Then RDEDEKEKIKEALKRGNEDKAKEIAKRANVSPEEYENLRKEAE [R37N], with 2.35 kcal/mol; and RDEDEKEKIKEALKRGNEDKAKEIAKRANVSPEEYEYLRKEAE [R37Y], with 2.05 kcal/mol; and RDEDEKEKIKEALKRGNEDKAKEIAKRANVSPEEYHRLRKEAE [E36H], with 1.75 kcal/mol. Then RDEDEKEKIKEALKRGNEDKAKEIAKRANVSPEEYPRLRKEAE [E36P], with 0.261 kcal/mol; and RDEDEKEKIKEALKRGNEDKAKEIAKRANVSPEEYIRLRKEAE [E36I], with 1.88 kcal/mol; and RDEDEKEKIKEALKRGNEDKAKEIAKRANVSPEEYLRLRKEAE [E36L], with 2.24 kcal/mol.

RDEDEKEKIKEALKRGNEDKAKEIAKRANVSPEEYWRLRKEAE [E36W]: the “folding stability dG” value was found to be 1.68 kcal/mol. For RDEDEKEKIKEALKRGNEDKAKEIAKRANVSPEEYKRLRKEAE [E36K], the “folding stability dG” value turned out to be 1.49 kcal/mol. The value for RDEDEKEKIKEALKRGNEDKAKEIAKRANVSPEEYRRLRKEAE [E36R] was 1.67 kcal/mol; that for RDEDEKEKIKEALKRGNEDKAKEIAKRANVSPEEYCRLRKEAE [E36C] was 2.86 kcal/mol; that for RDEDEKEKIKEALKRGNEDKAKEIAKRANVSPEEYARLRKEAE [E36A] was 2.31 kcal/mol. Then RDEDEKEKIKEALKRGNEDKAKEIAKRANVSPEEYDRLRKEAE [E36D], with 2.7 kcal/mol; and RDEDEKEKIKEALKRGNEDKAKEIAKRANVSPEEYYRLRKEAE [E36Y], with 1.52 kcal/mol. Then RDEDEKEKIKEALKRGNEDKAKEIAKRANVSPEEYMRLRKEAE [E36M], with 2.24 kcal/mol. For RDEDEKEKIKEALKRGNEDKAKEIAKRANVSPEEYGRLRKEAE [E36G], the “folding stability dG” value came out at 1.13 kcal/mol. The value for RDEDEKEKIKEALKRGNEDKAKEIAKRANVSPEEYNRLRKEAE [E36N] was 2.19 kcal/mol; that for RDEDEKEKIKEALKRGNEDKAKEIAKRANVSPEEYVRLRKEAE [E36V] was 1.5 kcal/mol. The value for RDEDEKEKIKEALKRGNEDKAKEIAKRANVSPEEYTRLRKEAE [E36T] was 1.7 kcal/mol; that for RDEDEKEKIKEALKRGNEDKAKEIAKRANVSPEEYSRLRKEAE [E36S] was 1.75 kcal/mol.

Turning to RDEDEKEKIKEALKRGNEDKAKEIAKRANVSPEEYFRLRKEAE [E36F], the “folding stability dG” value is 1.6 kcal/mol.

Turning to RDEDEKEKIKEALKRGNEDKAKEIAKRANVSPEEYQRLRKEAE [E36Q], the “folding stability dG” value is 2.11 kcal/mol. The value for RDEDEKEKIKEALKRGNEDKAKEIAKRANVSPEMYERLRKEAE [E34M] was 1.72 kcal/mol; that for RDEDEKEKIKEALKRGNEDKAKEIAKRANVSPESYERLRKEAE [E34S] was 1.14 kcal/mol; that for RDEDEKEKIKEALKRGNEDKAKEIAKRANVSPEVYERLRKEAE [E34V] was 1.81 kcal/mol. Regarding RDEDEKEKIKEALKRGNEDKAKEIAKRANVSPEKYERLRKEAE [E34K], the “folding stability dG” value is -0.215 kcal/mol. The value for RDEDEKEKIKEALKRGNEDKAKEIAKRANVSPEFYERLRKEAE [E34F] was 0.766 kcal/mol; that for RDEDEKEKIKEALKRGNEDKAKEIAKRANVSPELYERLRKEAE [E34L] was 1.56 kcal/mol. In the case of RDEDEKEKIKEALKRGNEDKAKEIAKRANVSPEAYERLRKEAE [E34A], the “folding stability dG” value worked out at 1.69 kcal/mol.

Regarding RDEDEKEKIKEALKRGNEDKAKEIAKRANVSPENYERLRKEAE [E34N], the “folding stability dG” value was 0.916 kcal/mol. RDEDEKEKIKEALKRGNEDKAKEIAKRANVSPEYYERLRKEAE [E34Y]: the “folding stability dG” value was 0.926 kcal/mol. The value for RDEDEKEKIKEALKRGNEDKAKEIAKRANVSPEGYERLRKEAE [E34G] was 1.06 kcal/mol; that for RDEDEKEKIKEALKRGNEDKAKEIAKRANVSPEIYERLRKEAE [E34I] was 1.79 kcal/mol; that for RDEDEKEKIKEALKRGNEDKAKEIAKRANVSPEHYERLRKEAE [E34H] was 0.903 kcal/mol. Turning to RDEDEKEKIKEALKRGNEDKAKEIAKRANVSPETYERLRKEAE [E34T], the “folding stability dG” value was 1.51 kcal/mol. Then RDEDEKEKIKEALKRGNEDKAKEIAKRANVSPERYERLRKEAE [E34R], with -0.261 kcal/mol; and RDEDEKEKIKEALKRGNEDKAKEIAKRANVSPECYERLRKEAE [E34C], with 1.85 kcal/mol. The value for RDEDEKEKIKEALKRGNEDKAKEIAKRANVSPEQYERLRKEAE [E34Q] was 1.68 kcal/mol.

As to RDEDEKEKIKEALKRGNEDKAKEIAKRANVSPEWYERLRKEAE [E34W], the “folding stability dG” value worked out at 1.1 kcal/mol. The value for RDEDEKEKIKEALKRGNEDKAKEIAKRANVSPEDYERLRKEAE [E34D] was 2.42 kcal/mol.

The values are drawn from the MegaScale stability set (Tsuboyama et al. 2023).
